T1: CEA (carcinoembryonic antigen, Biodesign Intl., Saco, Me.) (UniProt P06731 35-685)
T1 construct: also called immobilized CEA
T1 sequence: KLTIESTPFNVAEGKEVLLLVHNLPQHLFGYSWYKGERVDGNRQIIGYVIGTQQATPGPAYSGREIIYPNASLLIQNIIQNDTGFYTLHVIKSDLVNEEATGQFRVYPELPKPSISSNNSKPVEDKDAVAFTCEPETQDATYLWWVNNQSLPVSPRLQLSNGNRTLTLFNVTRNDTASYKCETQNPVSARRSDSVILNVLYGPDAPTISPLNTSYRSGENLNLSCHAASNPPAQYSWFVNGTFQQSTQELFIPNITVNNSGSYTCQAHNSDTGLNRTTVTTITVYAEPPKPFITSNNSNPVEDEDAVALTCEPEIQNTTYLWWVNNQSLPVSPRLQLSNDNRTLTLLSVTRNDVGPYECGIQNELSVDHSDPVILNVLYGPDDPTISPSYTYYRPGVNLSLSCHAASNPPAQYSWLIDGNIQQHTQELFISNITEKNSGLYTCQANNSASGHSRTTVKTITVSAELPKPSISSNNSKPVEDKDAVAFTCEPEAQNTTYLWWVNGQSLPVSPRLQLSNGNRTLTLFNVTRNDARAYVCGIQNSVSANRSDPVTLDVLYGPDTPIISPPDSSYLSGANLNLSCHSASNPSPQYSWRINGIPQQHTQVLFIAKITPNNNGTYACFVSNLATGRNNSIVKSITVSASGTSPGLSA


How the values were obtained:
[1] = molecular target: T1, CEA (carcinoembryonic antigen, …); test: CEA-coated plate, bound BLA activity (nitrocefin), cell lysate
[2] = molecular target: T1, CEA (carcinoembryonic antigen, …); test: CEA-coated plate at pH 6.5 and pH 7.4, bound BLA activity

Row | Binder | binding result [1] | binding result [2]
1 | NA05.6 (CAB1.1) (scFv, also called pNA05.6) QVKLQQSGAELVKSGGSVKLSCTASGFNIKDSYMHWLRQGPEQGLEWIGWIDPENGDTEYAPKFQGKATFTTDTSSNTAYLQLSSLTSEDTAVYYCNEGTPTGPYYFDYWGQGTTVTVSSGGGGSGGGGSGGGGSENVLTQSPAIMSASPGEKVTITCSASSSVSYMHWFQQKPGTSPKLVIYSTSNLASGVPARFSGSGSGTSYSLTISRMEAEDAATYYCQQRSSYPLTFGAGTKLELKRAATPVSEKQLAEVVANTITPLMKAQSVPGMAVAVIYQGKPHYYTFGKADIAANKPVTPQTLFELGSISKTFTGVLGGDAIARGEISLDDAVTRYWPQLTGKQWQGIRMLDLATYTAGGLPLQVPDEVTDNASLLRFYQNWQPQWKPGTTRLYANASIGLFGALAVKPSGMPYEQAMTTRVLKPLKLDHTWINVPKAEEAHYAWGYRDGKAVRVSPGMLDAQAYGVKTNVQDMANWVMANMAPENVADASLKQGIALAQSRYWRIGSMYQGLGWEMLNWPVEANTVVETSFGNVALAPLPVAEVNPPAPPVKASWVHKTGSTGGFGSYVAFIPEKQIGIVMLANTSYPNPARVEAAYHILEALQ | binds | 
2 | NA08.45 (scFv) QVQLQQSGAELVKSGGSVKLSCTASGFNIKDSYMHWVRQGPEQGLEWIGWIDPENGDTEYAPKFQGKATFTTDTSSNTAYLQLSSLTSEDTAVYYCNEGTPDGPYYFDYWGQGTTVTVSSGGGGSGGGGSGGGGSENVLTQSPAIVSASPGEKVTITCSASSSVSAMHWFQQKPGTSPKLVIYSTSNLASGVPARFSGSGSGTSYSLTISRMEAEDAATYYCQQRSSYPLTFGAGTKLELKRAATPVSEKQLAEVVANTITPLMKAQSVPGMAVAVIYQGKPHYYTFGKADIAANKPVTPQTLFELGSISKTFTGVLGGDAIARGEISLDDAVTRYWPQLTGKQWQGIRMLDLATYTAGGLPLQVPDEVTDNASLLRFYQNWQPQWKPGTTRLYANASIGLFGALAVKPSGMPYEQAMTTRVLKPLKLDHTWINVPKAEEAHYAWGYRDGKAVRVSPGMLDAQAYGVKTNVQDMANWVMANMAPENVADASLKQGIALAQSRYWRIGSMYQGLGWEMLNWPVEANTVVETSFGNVALAPLPVAEVNPPAPPVKASWVHKTGSTGGFGSYVAFIPEKQIGIVMLANTSYPNPARVEAAYHILEALQ |  | binds
3 | NA08.64 (scFv) QVQLQQSGAELVKSGGSVKLSCTASGFNIKDSYMHWVRQGPEQGLEWIGWIDPENGDTEYAPKFDGKATFTTDTSSNTAYLQLSSLTSEDTAVYYCNEGTPTGPYYFDYWGQGTTVTVSSGGGGSGGGGSGGGGSENVLTQSPAIVSASPGEKVTITCSASSSVSAMHWFQQKPGTSPKLVIYSTSNLASGVPARFSGSGSGTSYSLTISRMEAEDAATYYCQQRSSYPLTFGAGTKLELKRAATPVSEKQLAEVVANTITPLMKAQSVPGMAVAVIYQGKPHYYTFGKADIAANKPVTPQTLFELGSISKTFTGVLGGDAIARGEISLDDAVTRYWPQLTGKQWQGIRMLDLATYTAGGLPLQVPDEVTDNASLLRFYQNWQPQWKPGTTRLYANASIGLFGALAVKPSGMPYEQAMTTRVLKPLKLDHTWINVPKAEEAHYAWGYRDGKAVRVSPGMLDAQAYGVKTNVQDMANWVMANMAPENVADASLKQGIALAQSRYWRIGSMYQGLGWEMLNWPVEANTVVETSFGNVALAPLPVAEVNPPAPPVKASWVHKTGSTGGFGSYVAFIPEKQIGIVMLANTSYPNPARVEAAYHILEALQ |  | binds
4 | NA08.51 (scFv) QVQLQQSGAELVKSGGSVKLSCTASGFNIKDSYMHWVRQGPEQGLEWIGWIDPENGDTEYAPKFQGKATFTTDTSSNTAYLQLSSLTSEDTAVYYCNEGTPTGHYYFDYWGQGTTVTVSSGGGGSGGGGSGGGGSENVLTQSPAIVSASPGEKVTITCSASSSVSAMHWFQQKPGTSPKLVIYSTSNLASGVPARFSGSGSGTSYSLTISRMEAEDAATYYCQQRSSYPLTFGAGTKLELKRAATPVSEKQLAEVVANTITPLMKAQSVPGMAVAVIYQGKPHYYTFGKADIAANKPVTPQTLFELGSISKTFTGVLGGDAIARGEISLDDAVTRYWPQLTGKQWQGIRMLDLATYTAGGLPLQVPDEVTDNASLLRFYQNWQPQWKPGTTRLYANASIGLFGALAVKPSGMPYEQAMTTRVLKPLKLDHTWINVPKAEEAHYAWGYRDGKAVRVSPGMLDAQAYGVKTNVQDMANWVMANMAPENVADASLKQGIALAQSRYWRIGSMYQGLGWEMLNWPVEANTVVETSFGNVALAPLPVAEVNPPAPPVKASWVHKTGSTGGFGSYVAFIPEKQIGIVMLANTSYPNPARVEAAYHILEALQ |  | binds
5 | NA05.10 (scFv) QVQLQQSGAELVRSGTSVKLSCTASGFNIKDSYMHWVRQGPEQGLEWIGWIDPENGDTEYAPKFQGKATFTTDTSSNTAYLQLSSLTSEDTAVYYCNEGTPTGPYYFDYWGQGTTVTVSSGGGGSGGGGSGGGGSENVLTQSPAIMSASPGEKVTITCSASSSVSYMHWYQQKPGTSPKLVIYSTSNLASGVPARFSGSGSGTSYSLTISRMEAEDAATYYCQQRSSYPLTFGAGTKLELKRAATPVSEKQLAEVVANTITPLMKAQSVPGMAVAVIYQGKPHYYTFGKADIAANKPVTPQTLFELGSISKTFTGVLGGDAIARGEISLDDAVTRYWPQLTGKQWQGIRMLDLATYTAGGLPLQVPDEVTDNASLLRFYQNWQPQWKPGTTRLYANASIGLFGALAVKPSGMPYEQAMTTRVLKPLKLDHTWINVPKAEEAHYAWGYRDGKAVRVSPGMLDAQAYGVKTNVQDMANWVMANMAPENVADASLKQGIALAQSRYWRIGSMYQGLGWEMLNWPVEANTVVETSFGNVALAPLPVAEVNPPAPPVKASWVHKTGSTGGFGSYVAFIPEKQIGIVMLANTSYPNPARVEAAYHILEALQ | binds | 
6 | NA05.9 (scFv) QVQLQQSGAELVRPGTSVKLSCTASGFNIKDSYMHWVRQGPGQGLEWIGWIDPENGDTEYAPKFQGKATFTTDTSSNTAYLQLSSLTSEDTAVYYCNEGTPTGPYYFDYWGQGTTVTVSSGGGGSGGGGSGGGGSQNVLTQSPAIVSASPGEKVTITCSASSSVSYMHWFQQKPGTSPKLVIYSTSNLASGVPARFSGSGSGTSYSLTISRMEAEDAATYYCQQRSSYPLTFGGGTKLELKRAATPVSEKQLAEVVANTITPLMKAQSVPGMAVAVIYQGKPHYYTFGKADIAANKPVTPQTLFELGSISKTFTGVLGGDAIARGEISLDDAVTRYWPQLTGKQWQGIRMLDLATYTAGGLPLQVPDEVTDNASLLRFYQNWQPQWKPGTTRLYANASIGLFGALAVKPSGMPYEQAMTTRVLKPLKLDHTWINVPKAEEAHYAWGYRDGKAVRVSPGMLDAQAYGVKTNVQDMANWVMANMAPENVADASLKQGIALAQSRYWRIGSMYQGLGWEMLNWPVEANTVVETSFGNVALAPLPVAEVNPPAPPVKASWVHKTGSTGGFGSYVAFIPEKQIGIVMLANTSYPNPARVEAAYHILEALQ | binds | 
7 | NA05.8 (scFv) QVKLQQSGAELVKSGTSVKLSCTASGFNIKDSYMHWLRQGPEQGLEWIGWIDPENGDTEYAPKFQGKATFTTDTSSNTAYLQLSSLTSEDTAVYYCNEGTPTGPYYFDYWGQGTTVTVSSGGGGSGGGGSGGGGSENVLTQSPAIMSASPGEKVTITCSASSSVSYMHWYQQKPGTSPKLWIYSTSNLASGVPARFSGSGSGTSYSLTISRMEAEDAATYYCQQRSSYPLTFGGGTKLELKRAATPVSEKQLAEVVANTITPLMKAQSVPGMAVAVIYQGKPHYYTFGKADIAANKPVTPQTLFELGSISKTFTGVLGGDAIARGEISLDDAVTRYWPQLTGKQWQGIRMLDLATYTAGGLPLQVPDEVTDNASLLRFYQNWQPQWKPGTTRLYANASIGLFGALAVKPSGMPYEQAMTTRVLKPLKLDHTWINVPKAEEAHYAWGYRDGKAVRVSPGMLDAQAYGVKTNVQDMANWVMANMAPENVADASLKQGIALAQSRYWRIGSMYQGLGWEMLNWPVEANTVVETSFGNVALAPLPVAEVNPPAPPVKASWVHKTGSTGGFGSYVAFIPEKQIGIVMLANTSYPNPARVEAAYHILEALQ | binds | 
8 | NA08.24 (scFv) QVQLQQSGAELVKSGGSVKLSCTASGFNIKDSYMHWVRQGPEQGLEWIGWIDPENGDTEYAPKFQGKATFTTDTSSNTAYLQLSSLTSEDTAVYYCNEGTPDGPYYFDYWGQGTTVTVSSGGGGSGGGGSGGGGSENVLTQSPAIVSASPGEKVTITCSASSSVSYMHWFQQKPGTSPKLVIYSTSNLASGVPARFSGSGSGTSYSLTISRMEAEDAATYYCQQRDSYPLTFGAGTKLELKRAATPVSEKQLAEVVANTITPLMKAQSVPGMAVAVIYQGKPHYYTFGKADIAANKPVTPQTLFELGSISKTFTGVLGGDAIARGEISLDDAVTRYWPQLTGKQWQGIRMLDLATYTAGGLPLQVPDEVTDNASLLRFYQNWQPQWKPGTTRLYANASIGLFGALAVKPSGMPYEQAMTTRVLKPLKLDHTWINVPKAEEAHYAWGYRDGKAVRVSPGMLDAQAYGVKTNVQDMANWVMANMAPENVADASLKQGIALAQSRYWRIGSMYQGLGWEMLNWPVEANTVVETSFGNVALAPLPVAEVNPPAPPVKASWVHKTGSTGGFGSYVAFIPEKQIGIVMLANTSYPNPARVEAAYHILEALQ |  | binds
